Reference: publication PMC9935730, “Expression, Purification, Structural and Functional Characterization of Recombinant Human Parvulin 17” (Molecular Biotechnology, 2022)
Square brackets hold non-standard residues; d marks the D form. Primed or numbered codes have the meaning given here. * marks the point of attachment. Dabcyl′ = quencher group on the Lys side chain, CN(C)c1ccc(/N=N/c2ccc(C(=O)*)cc2)cc1; EDANS = O=S(=O)(O)c1cccc2c(NCCN*)cccc12; pS = N[C@@H](COP(=O)(O)O)C(=O)O

T1: FRET peptide substrate Ac-EK(Dabcyl)pSPRFE(EDANS)KA-NH2 (SMILES …)
T1 peptide: Ac-EK(Dabcyl′)[pS]PRFE(EDANS)KA-NH2


Target: T1, FRET peptide substrate …
Experiment: cell-based or functional assay

Row | Binder | Km, FRET-based chymotrypsin-coupled peptidyl-prolyl cis–trans isomerase assay (values at 1 h) [µM]
1 | Catalytic domain of Pin1, residues 50-163 (domain or fragment, human, UniProt Q13526 50-163, looked up) GEPARVRCSHLLVKHSQSRRPSSWRQEKITRTKEEALELINGYIQKIKSGEEDFESLASQFSDCSSAKARGDLGAFSRGQMQKPFEDASFALRTGEMSGPVFTDSGIHIILRTE | 48.2
2 | Catalytic domain of Par17, residues 60-156 (domain or fragment) not shown | 62.5
